The numbers were not newly measured in paper PMC8035261, which cites them from elsewhere.

pKd: −log10 of the molar value.

The target of one series is FGFR3 (Homo sapiens) (UniProt P22607).
The next series concerns the target SV2 (UniProt Q9Z2I6).
UniProt Q9Z2I6, sequence (Q9Z2I6 whole entry): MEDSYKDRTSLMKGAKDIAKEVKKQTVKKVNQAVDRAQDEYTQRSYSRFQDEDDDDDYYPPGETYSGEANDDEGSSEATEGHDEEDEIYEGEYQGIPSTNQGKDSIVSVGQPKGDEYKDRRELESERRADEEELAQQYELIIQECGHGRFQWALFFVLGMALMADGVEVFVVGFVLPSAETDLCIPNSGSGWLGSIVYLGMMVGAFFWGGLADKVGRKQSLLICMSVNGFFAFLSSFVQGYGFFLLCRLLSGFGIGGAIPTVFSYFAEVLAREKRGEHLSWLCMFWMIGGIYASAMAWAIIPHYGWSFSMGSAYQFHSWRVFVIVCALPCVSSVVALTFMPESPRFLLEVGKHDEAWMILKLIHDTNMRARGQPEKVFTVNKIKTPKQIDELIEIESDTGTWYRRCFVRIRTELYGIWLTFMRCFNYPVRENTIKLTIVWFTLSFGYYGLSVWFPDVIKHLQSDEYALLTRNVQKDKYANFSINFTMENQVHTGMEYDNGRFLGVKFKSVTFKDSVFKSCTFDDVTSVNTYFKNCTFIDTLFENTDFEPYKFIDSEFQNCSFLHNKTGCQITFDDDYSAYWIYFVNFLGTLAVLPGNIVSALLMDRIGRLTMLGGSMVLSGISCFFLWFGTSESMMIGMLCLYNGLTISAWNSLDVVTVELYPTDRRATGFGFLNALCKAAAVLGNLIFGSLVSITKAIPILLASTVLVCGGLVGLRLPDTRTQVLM

UniProt P22607, sequence (P22607 23-806): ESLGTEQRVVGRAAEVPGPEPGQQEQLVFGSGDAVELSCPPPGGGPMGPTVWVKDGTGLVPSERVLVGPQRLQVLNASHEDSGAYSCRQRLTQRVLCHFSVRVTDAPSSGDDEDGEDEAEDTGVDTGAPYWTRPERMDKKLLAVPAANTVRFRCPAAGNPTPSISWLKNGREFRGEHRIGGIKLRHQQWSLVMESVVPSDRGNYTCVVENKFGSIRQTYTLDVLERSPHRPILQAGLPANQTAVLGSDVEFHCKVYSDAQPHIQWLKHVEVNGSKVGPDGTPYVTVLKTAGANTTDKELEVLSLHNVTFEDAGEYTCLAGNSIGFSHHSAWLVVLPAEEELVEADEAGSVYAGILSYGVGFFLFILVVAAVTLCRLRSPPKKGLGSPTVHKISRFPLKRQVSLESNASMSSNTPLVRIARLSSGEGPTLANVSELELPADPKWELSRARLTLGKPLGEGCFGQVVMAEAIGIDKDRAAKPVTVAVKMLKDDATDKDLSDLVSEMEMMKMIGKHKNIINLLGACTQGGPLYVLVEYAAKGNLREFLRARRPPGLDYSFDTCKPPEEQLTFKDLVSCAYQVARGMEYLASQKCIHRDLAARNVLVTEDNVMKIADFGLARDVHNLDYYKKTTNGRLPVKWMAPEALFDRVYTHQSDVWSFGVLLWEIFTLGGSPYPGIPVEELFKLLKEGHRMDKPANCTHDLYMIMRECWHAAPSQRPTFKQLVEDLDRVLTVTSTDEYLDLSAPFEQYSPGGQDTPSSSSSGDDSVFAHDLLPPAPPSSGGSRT

A word on the pKd: it is the Kd on a negative log10 scale, so that one unit is a factor of ten. BoNT/A (from UniProt P0DPI1): the results for the pKd with FGFR3 (Homo sapiens) and with SV2 were 7.82 and 7.00, respectively.
